Source: WO2014051109A1 (dated 2014)
Substitutions are numbered along the chain they refer to.

Key:
[1] = target: human BMP9 recombinant protein (prepared by the method of Example 12 of WO2010/126169; N-terminal His-type hBMP9 complex, vector pLN1V5_hBMP9) (human) (UniProt Q9UK05); experiment: SPR (BIAcore 2000), antibody captured by anti-mouse IgG on CM5, human BMP9 as analyte, single cycle kinetics
[2] = target: T1, human BMP9/10 chimeric protein C (human, UniProt Q9UK05 23-319; Q9UK05 320-429); experiment: solid-phase antigen ELISA, recombinant 3C7-3-1 antibody 1000 ng/mL on immobilized antigen (3 ug/mL)
T1 construct: also called BMP9/10 chimeric recombinant protein C; pLN1V5_hBMP9/10C product; not shown: His6 tag
T1 chain 1: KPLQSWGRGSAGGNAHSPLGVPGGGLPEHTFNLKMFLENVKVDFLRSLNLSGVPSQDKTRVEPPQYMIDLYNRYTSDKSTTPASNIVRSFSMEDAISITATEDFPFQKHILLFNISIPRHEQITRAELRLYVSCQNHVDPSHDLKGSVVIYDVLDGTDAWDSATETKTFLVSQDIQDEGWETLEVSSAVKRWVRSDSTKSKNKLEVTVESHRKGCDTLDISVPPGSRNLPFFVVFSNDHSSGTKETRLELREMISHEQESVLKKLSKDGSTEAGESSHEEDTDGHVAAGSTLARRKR
T1 chain 2: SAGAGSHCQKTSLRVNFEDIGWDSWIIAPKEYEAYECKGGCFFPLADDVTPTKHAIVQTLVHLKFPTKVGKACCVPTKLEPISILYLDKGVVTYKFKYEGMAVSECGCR

[3] = target: T2, human BMP9 recombinant protein (prepared by the method of Example 12 of WO2010/126169); N-terminal His-type … (human, UniProt Q9UK05 23-319; Q9UK05 320-429); experiment: SPR (BIAcore 2000), ratio of Kd values against the R&D antibody
T2 construct: not shown: N-terminal His tag (His6)
T2 sequence 1: T1 chain 1
T2 sequence 2: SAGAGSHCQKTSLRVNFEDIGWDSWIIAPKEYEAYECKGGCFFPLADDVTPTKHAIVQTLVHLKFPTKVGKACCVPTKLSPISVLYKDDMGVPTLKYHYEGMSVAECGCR

[4] = target: T3, human mature dimer BMP9 recombinant protein (R&D Systems, Cat#3209-BP) (human, UniProt Q9UK05 320-429); experiment: cell-based or functional assay
T3 sequence: T2 sequence 2

[5] = target: T2, human BMP9 recombinant protein …; experiment: SPR (BIAcore 2000), antibody captured by anti-mouse IgG on CM5, human BMP9 as analyte, single cycle kinetics
[6] = target: T4, human mature dimer BMP10 recombinant protein (R&D Systems, Cat#2926-BP) (human, UniProt O95393 317-424); experiment: solid-phase antigen ELISA, biotin-labeled antibody on immobilized BMP10
T4 construct: Bought protein; also called human BMP10
T4 sequence: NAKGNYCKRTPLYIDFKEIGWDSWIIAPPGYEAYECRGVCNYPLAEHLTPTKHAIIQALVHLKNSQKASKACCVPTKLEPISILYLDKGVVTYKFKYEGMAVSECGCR

[7] = target: T3, human mature dimer BMP9 recombinant …; experiment: solid-phase antigen ELISA, biotin-labeled antibody 100 ng/mL on immobilized BMP9

Molecule: R&D antibody (anti-human BMP9 mouse monoclonal antibody, R&D Systems, clone No. 360107)
- Kd [1]: 616 pM

B1: 3C7-3-1 antibody (antibody, V domains shown)
VH: EVQLQQSGPELVKPGASVKISCKASGNSFTGYYMNWMKQSPEKSLEWIGEINPSTGATTYNQKFKAKATLTVDKSSSTAYMQLKSLTSEDFAVYYCTRRAAYYFDYWGQGTTLTVSS
VL: QIVLTQSPALMSASPGEKVTMTCSASSSVNYMYWYQQKPRSSPKPWIYLTSNLASGVPARFSGSGSGTSYSLTISSMEAEDAATYYCQQWSSNPRTFGGGTKLEIK
notes: Mouse IgG1, kappa; also called recombinant 3C7-3-1 antibody (mouse IgG1, kappa)
- binding result [2]: binds
- binding activity, fold of the R&D antibody [3]: 23.3 fold
- BMP9-dependent ALK1-derived signal inhibitory activity (luciferase, human ALK1 reporter cells ALK1/p(GCCG)12-Luc/HepG2(38.5), 10 ng/mL BMP9) [4]: ~0.0625 fold of the R&D antibody
- Kd [5]: 26.4 pM
- binding result [6]: no binding (tested: 100 ng/mL antibody)

B2: 3B7-3-3 antibody (antibody, V domains shown)
VH: EVQLQQSRPELVKPGASVKISCKASDYSFTDYYMNWVKQSPDKSLEWIGEISPSSGGTTYNQKFKAKATLTVDKSSSTAYMQLKSLTSEDSAVYYCATRGAFYFDYWGQGTALTVSS
VL: B1 VL with S14F, N30S, A59T, Y86F
notes: Mouse monoclonal antibody from a hybridoma (BMP9 KO mouse); also called anti-human BMP9 monoclonal antibody 3B7-3-3
- binding result [6]: no binding (tested: 100 ng/mL antibody)
- binding result [7]: binds
